Laboratory results published in the supplement of paper PMC10567573.

B1: FBXO3 (parent)
chain: DEEERRRRVFDVPIRRRRCSRLF
B2: MFF (parent)
chain: YTEGISQRMRVPEKLKVAPPNADL

Variants of: B1
Assay: protein stability index of a GFP-peptide fusion (GPS, HEK-293T) (PSI 1-6); higher = more stable
Settings: c terminus: native
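Also: lentivirally expressed fusions sorted by FACS into six bins by GFP to DsRed ratio, PSI derived from sequencing read proportions per bin multiplied by bin number.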

Variant | protein stability index
P13E | 2.15
P13Y | 2.8
P13M | 2.19
P13F | 3.42
P13N | 2.07
P13G | 2.24
P13C | 2.98
P13V | 2.89
P13H | 2.95
P13D | 2.15
R6L | 2.69
R6D | 4.26
R6W | 1.56
R6H | 3.17
R6S | 3.8
R6T | 3.66
R6V | 3.2
R6A | 3.51
R6I | 2.36
R6N | 3.87
R6Y | 1.78
E2W | 2.25
E2V | 1.95
E2H | 1.79
E2F | 1.97

Variant | protein stability index
E2T | 1.65
E2A | 1.49
E2P | 2.15
E2D | 3.08
E2L | 1.45
E2Q | 3.19
V12Q | 3.24
V12F | 2.6
V12T | 2.75
V12M | 2.47
V12E | 2.81
V12P | 2.98
V12N | 2.28
V12C | 1.73
V12S | 3.24
V12H | 2.69
V12W | 2.66
V12G | 3.26
V12K | 3.25
V12I | 2.32
V12R | 3.62
V12D | 2.71
E4D | 3.66
E4I | 2.16
E4L | 1.59

Variant | protein stability index
E4T | 2.14
E4Y | 2.14
E4S | 2.08
E4P | 2.29
E4R | 2.9
E4C | 2.58
E4M | 3.23
E4H | 1.99
E4N | 1.92
V9Q | 3.45
V9R | 2.71
V9K | 3.72
V9W | 2.94
V9H | 3.54
V9C | 2.74
V9A | 3.43
V9T | 3.65
V9D | 4.46
V9F | 2.19
V9E | 4.03
V9L | 2.53
V9I | 2.42
V9P | 3.44
V9Y | 2.64
V9N | 3.75

Variant | protein stability index
V9S | 3.47
V9M | 2.47
R18G | 3.74
R18E | 2.38
R18Q | 1.78
R18K | 2.83
R18F | 1.57
R18M | 2.31
R18W | 2.31
R18V | 1.83
R18Y | 1.95
R18P | 1.7
R5Q | 4.1
R5F | 3.24
R5D | 3.64
R5H | 3.41
R5Y | 2.85
R5K | 3.32
R5L | 3.12
R5P | 3.3
R5T | 3.51
R5C | 2.57
R5G | 3.54
R5M | 3.59
R5A | 3.9

Variant | protein stability index
R5W | 2.23
E3Y | 1.84
E3T | 1.81
E3I | 1.99
E3M | 2.53
E3H | 2.18
E3V | 2.54
E3P | 2.32
E3G | 2.19
E3Q | 2.57
F10S | 4.54
F10D | 4.51
F10N | 4.45
F10H | 4.08
F10Q | 4.56
F10G | 4.62
F10R | 3.85
F10A | 4.88
F10W | 2.09
F10T | 4.33
F10M | 3.87
F10L | 3.06
F10P | 4.32
F10V | 3.94
R8P | 3.63

Variant | protein stability index
R8W | 2.4
R8V | 3.66
R8S | 3.01
R8Q | 3.66
R8L | 2.94
R8K | 2.87
R8E | 3.64
R8C | 2.33
R8G | 4.29
R8Y | 1.95
R8A | 3.74
R8T | 3.86
C19S | 4.15
C19I | 3.49
C19P | 2.56
C19G | 1.93
C19D | 3.44
C19N | 4.56
C19F | 3.76
C19K | 4.77
C19T | 3.63
C19L | 3.54
C19Q | 4.39
C19Y | 3.36
C19W | 3.64

Variant | protein stability index
C19M | 3.23
C19A | 3.62
S20K | 2.69
S20N | 2.61
S20P | 2.51
S20A | 2.15
S20Y | 2.22
S20V | 2.06
S20W | 2.47
S20G | 3.48
S20L | 2.36
S20Q | 2.69
S20R | 3.35
S20C | 4.36
S20H | 2.68
R21M | 2.87
R21K | 3.27
R21Q | 3.62
R21Y | 3.08
R21S | 4.35
R21N | 3.99
R21W | 2.53
R21G | 2.36
R21E | 3.46
R21F | 3.04

Variant | protein stability index
R21V | 2.98
R21H | 3.59
R21L | 2.6
R21I | 2.93
R21T | 3.85
R21D | 3.91
R21C | 4.79
R21A | 4.48
I14S | 2.49
I14L | 2.56
I14Q | 2.53
I14D | 2.14
I14V | 3.27
I14M | 2.63
I14P | 3.4
I14C | 2.38
I14T | 3.66
I14K | 3.78
I14A | 2.64
I14E | 2.46
I14Y | 2.4
R7K | 2.79
R7Y | 2.51
R7N | 3.8
R7I | 2.8

Variant | protein stability index
R7D | 4
R7L | 3.19
R7Q | 3.69
R7W | 1.97
R7M | 2.3
R7T | 3.67
R7H | 3.06
R7P | 3.71
L22Y | 2.63
L22W | 3.03
L22C | 2.71
L22E | 4.92
L22H | 2.94
L22M | 2.28
L22V | 2.12
L22N | 2.09
L22K | 4.67
L22P | 3.85
L22G | 3.06
L22A | 3.3
L22F | 4.44
L22R | 3.97
D11Y | 1.67
D11T | 2.84
D11P | 3.34

Variant | protein stability index
D11Q | 2.4
D11V | 1.99
D11W | 1.76
D11H | 2.19
D11N | 3.06
D11K | 2.51
D11E | 2.68
D1Y | 2.57
D1S | 1.85
D1L | 1.97
D1F | 1.92
D1K | 2.27
D1H | 1.87
D1V | 2.34
D1Q | 1.69
D1N | 2.05
D1C | 1.58
D1W | 1.8
D1A | 2.65
R16Y | 1.72
R16N | 2.21
R16C | 1.91
R16V | 2.27
R16S | 2.28
R16W | 1.99

Variant | protein stability index
R16K | 3.51
R16H | 2.23
R16G | 3.45
R16L | 2.19
R16E | 2.55
R16F | 1.93
R16A | 2.53
R16Q | 2.24
F23W | 3.56
F23Y | 3.25
F23I | 1.85
F23V | 3.28
F23K | 4.1
F23H | 2.77
F23R | 3.91
F23G | 2.86
F23S | 1.03
F23N | 2.48
F23A | 1.35
F23P | 2.6
F23Q | 2.98
R15K | 3.65
R15F | 1.93
R15A | 2.88
R15N | 2.21

Variant | protein stability index
R15I | 2.31
R15T | 2.72
R15S | 2.39
R15G | 2.74
R15M | 1.72
R15C | 2.99
R15Y | 1.88
R15D | 2.27
R15V | 2.78
R15L | 1.98
R17S | 1.77
R17A | 2.5
R17Y | 1.58
R17E | 2.27
R17C | 1.71
R17K | 3.27
R17I | 1.84
R17D | 2.17
R17T | 2.82
R17V | 2.06
R17F | 1.87
R17H | 2.21

Variants of: B2
Assay: as above
Settings: c terminus: a fixed tail appended

Variant | protein stability index
N21E | 2.87
S6M | 2.09
S6N | 2.93
S6T | 2.98
R8Q | 2.79
A22V | 3.09
A22W | 2.45
D23F | 2.47
K16G | 3.27
G4F | 2.32
G4P | 3.79
G4Y | 2.69
R10E | 2.83
R10C | 2.74
E3Q | 3.01
P20D | 3.04
P20S | 2.65
P20L | 2.24
P20K | 3.51

Variant | protein stability index
A18S | 2.85
A18K | 2.59
A18P | 2.89
K14Y | 2.44
P12D | 2.73
V11R | 2.48
V11G | 2.9
L24A | 3
L24W | 2.14
P19Q | 2.67
V17G | 2.65
V17E | 3.25
I5L | 3.06
I5R | 3.78
I5H | 3.81
T2P | 3.48
L15Q | 3.06
Q7R | 2.81
